Tests used:
[1] = target: T1, isolated human C3b (ih-C3b) (human, UniProt P01024 749-1663; P01024 23-667, limits assumed, biotin on amino groups (Biotin-X-NHS) in flow cytometry; unlabelled in ELISA); assay: flow cytometry, CSP on transduced Bw cells (FIG. 2a)
T1 construct: Multi-chain fragment
Experimental: (§1) FIG. 2. Interaction of ILT4 and ILT5v2 with C4d, C4b, C3d, C3b and iC3b. a Flow cytometric analysis of Bw cells transduced to express ILT2, ILT4 and ILT5-antigenic variants 1 and 2 (ILT5v1 and ILT5v2). Expression of ILT-receptors was verified with specific monoclonal antibodies (left panels, grey histograms; open histograms represent reactivity of ILT MAbs with mock treated Bw cells). Interaction of Bw cells expressing ILT-molecules and mock-treated Bw cells with the indicated CSPs (20 μg/mL each) and with MHC-class I tetramers (further panels, grey histograms). b Interaction of plate-bound CSPs with recombinant human ILT4-Fc fusion protein (rh-ILT4-Fc) or control Fc-fusion protein (rh-ILT3-Fc) was analyzed in an ELISA. c Bw cells transduced to express PIR-B, the murine ortholog of ILT4, were probed with a PIR-B-specific monoclonal antibody or with human CSPs and human MHC-class I tetramers.
(§2) Flow cytometric analyses were performed via a FACSCalibur flow cytometrer (BD Biosciences, Franklin Lakes, N.J.) using 60,000 cells per sample resuspended in FACS-buffer. In experiments employing monocytes or moDCs, human IgG (Beriglobin P; CSL Behring, Vienna, Austria) was used at 20 mg/mL to block Fcγ receptors. […]

[2] = target: T2, isolated human iC3b (ih-iC3b) (human, UniProt P01024 23-667; P01024 749-1303; P01024 1321-1663, limits assumed, biotin on amino groups (Biotin-X-NHS) in flow cytometry; unlabelled in ELISA); assay: as above
T2 construct: Multi-chain fragment
Experimental: as §1, §2

[3] = target: T1, isolated human C3b (ih-C3b); assay: flow cytometry, CSP on transduced Bw cells (FIG. 5a)
Experimental: (§3) FIG. 5. Flow cytometric analysis of the interaction of C4d, C3d, C4b, C3b and iC3b and human MHC class I tetramers with Bw cells transduced to express a ILT1 transcript variants 1 and 2 (ILT1v1 and ILT1v2), ILT3 and ILT7, b previously established complement receptors CD21, CD46 and CRIg, and c PIR-A transcript variant 1 (PIR-Avl), murine ortholog of ILT1. a-c left panels: Expression of transduced receptors was assessed using specific antibodies (grey histograms); open histograms represent reactivity of these antibodies with control Bw cells. d Plate-bound CSP were probed with a recombinant protein representing the human CD35 extracellular domain (rh-sCD35) via ELISA. BSA was used as a plate-bound ligand control; white control bars represent no rh-sCD35 added to the assay.
(§4) Flow cytometric analyses were performed via a FACSCalibur flow cytometrer (BD Biosciences, Franklin Lakes, N.J.) using 60,000 cells per sample resuspended in FACS-buffer. […] For fluorescence-activated cell sorting (FACS), Bw cells expressing a retroviral cDNA expression library generated from moDC¹⁶ were incubated with biotinylated rh-C4Ad or rh-C4Bd (20m/mL each) in FACS-buffer for 30 minutes on ice followed by two washing steps and subsequent detection of bound biotinylated C4d molecules through incubation with SA-PE. […]

[4] = target: T2, isolated human iC3b (ih-iC3b); assay: as above
Experimental: as §3, §4

[5] = target: T3, immunoglobulin-like transcript 4 (ILT4) (human, UniProt Q8N423 22-597); assay: flow cytometry: rh-C4d (C4Ad per the FIG. 3a legend) titrated on Bw-ILT4 cells, detected with C4d-mMAb, Langmuir 1:1 isotherm; stated to be a minimum estimate (non-equilibrium assay)
T3 construct: Expressed on Bw5147 cells from a 2 kb retroviral insert; In the functional assays it is the native receptor on human monocytes; also called CD85d; LILRB2
Experimental: FIG. 3. Classical receptor-ligand interaction between C4d and ILT4. a Bw-ILT4 cells or control Bw cells (Bw-mock) were incubated with different concentrations of C4Ad and cell-bound C4Ad was measured by flow cytometry using C4d-mMAb for detection. Data obtained for C4Ad are representative for those using C4Bd, data not shown. Mean and standard deviation of triplicate measurements are shown. b Dissociation constant (Kd) of the C4d-ILT4 interaction assessed via Langmuir binding isotherm equation for single class 1:1 binding equilibrium based on data shown in FIG. 3a.
Flow cytometric analyses were performed via a FACSCalibur flow cytometrer (BD Biosciences, Franklin Lakes, N.J.) using 60,000 cells per sample resuspended in FACS-buffer. In experiments employing monocytes or moDCs, human IgG (Beriglobin P; CSL Behring, Vienna, Austria) was used at 20 mg/mL to block Fcγ receptors. For fluorescence-activated cell sorting (FACS), Bw cells expressing a retroviral cDNA expression library generated from moDC¹⁶ were incubated with biotinylated rh-C4Ad or rh-C4Bd (20m/mL each) in FACS-buffer for 30 minutes on ice followed by two washing steps and subsequent detection of bound biotinylated C4d molecules through incubation with SA-PE. FACS was performed using a FACSDiva (BD Biosciences).

[6] = target: T3, immunoglobulin-like transcript 4 (ILT4); assay: flow cytometry, biotinylated C4d (20 µg/mL) on Bw cells expressing ILT4
Text: FIG. 1. Identification of ILT4 as cellular receptor for C4d. a Flow cytometric analyses showing the interaction of biotinylated recombinant human C4d (20m/mL) of both isoforms, rh-C4Ad and rh-C4Bd, with monocytes and monocyte-derived dendritic cells (moDC; grey histograms). Open histograms represent the reactivity of the secondary reagent with these cells. SA-PE: streptavidin-R-PE. b C4d-reactive cells were enriched from a Bw cell pool expressing a cDNA library derived from human moDC by multiple rounds of FACS. Data obtained for rh-C4Bd are representative for those obtained using rh-C4Ad (data not shown). Sorting gates are shown. c Single cell clones derived from the C4d reactive Bw cell pool were probed with rh-C4Ad- and rh-C4Bd. MFI: mean fluorescence intensity. d PCR-amplification of the retroviral inserts of the C4d-b(C4Bd) binding clones 1.5 and 3.7. e Bw cells expressing a 2 kb retroviral insert encoding immunoglobulin-like transcript 4 (ILT4) were probed with biotinylated rh-C4Ad, rh-C4Bd and C4d isolated from human plasma (ih-C4d) each at 20m/mL or ILT4-specific mMAb (grey histograms). Open histograms represent reactivity of C4d molecules and ILT4 mMAb with control Bw-cells. f Monocytes and moDC were analyzed for ILT4 expression (grey histograms, ILT4-mMAb; open histograms, isotype control). […]

T3 sequence (Q8N423 other isoform, or with tags, fused parts or gaps limits assumed): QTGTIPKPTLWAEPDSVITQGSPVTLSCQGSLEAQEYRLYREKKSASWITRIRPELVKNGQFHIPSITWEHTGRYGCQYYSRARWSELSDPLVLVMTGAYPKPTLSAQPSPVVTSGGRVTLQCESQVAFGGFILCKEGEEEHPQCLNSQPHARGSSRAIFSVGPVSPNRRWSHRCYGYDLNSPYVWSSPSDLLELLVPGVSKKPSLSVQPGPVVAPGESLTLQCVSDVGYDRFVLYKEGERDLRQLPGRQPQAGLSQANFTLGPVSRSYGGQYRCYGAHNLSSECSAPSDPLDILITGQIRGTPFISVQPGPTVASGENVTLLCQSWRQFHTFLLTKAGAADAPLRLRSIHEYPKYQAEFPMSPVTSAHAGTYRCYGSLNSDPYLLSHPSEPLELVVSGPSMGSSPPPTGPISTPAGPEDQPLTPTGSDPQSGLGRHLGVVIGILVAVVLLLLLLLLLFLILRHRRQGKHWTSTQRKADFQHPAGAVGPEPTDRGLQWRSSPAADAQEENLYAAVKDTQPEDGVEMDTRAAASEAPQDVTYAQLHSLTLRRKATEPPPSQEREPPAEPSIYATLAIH

B1: ILT2 (receptor, human, UniProt Q8NHL6 24-650, looked up)
chain: GHLPKPTLWAEPGSVITQGSPVTLRCQGGQETQEYRLYREKKTALWITRIPQELVKKGQFPIPSITWEHAGRYRCYYGSDTAGRSESSDPLELVVTGAYIKPTLSAQPSPVVNSGGNVILQCDSQVAFDGFSLCKEGEDEHPQCLNSQPHARGSSRAIFSVGPVSPSRRWWYRCYAYDSNSPYEWSLPSDLLELLVLGVSKKPSLSVQPGPIVAPEETLTLQCGSDAGYNRFVLYKDGERDFLQLAGAQPQAGLSQANFTLGPVSRSYGGQYRCYGAHNLSSEWSAPSDPLDILIAGQFYDRVSLSVQPGPTVASGENVTLLCQSQGWMQTFLLTKEGAADDPWRLRSTYQSQKYQAEFPMGPVTSAHAGTYRCYGSQSSKPYLLTHPSDPLELVVSGPSGGPSSPTTGPTSTSGPEDQPLTPTGSDPQSGLGRHLGVVIGILVAVILLLLLLLLLFLILRHRRQGKHWTSTQRKADFQHPAGAVGPEPTDRGLQWRSSPAADAQEENLYAAVKHTQPEDGVEMDTRSPHDEDPQAVTYAEVKHSRPRREMASPPSPLSGEFLDTKDRQAEEDRQMDTEAAASEAPQDVTYAQLHSLTLRREATEPPPSQEGPSPAVPSIYATLAIH
notes: whole, on cells
B1: no binding (tested: 20 µg/mL) [1]; no binding (tested: 20 µg/mL) [2].

B2: ILT7 (receptor, human, UniProt P59901 24-499, looked up)
chain: ENLLKPILWAEPGPVITWHNPVTIWCQGTLEAQGYRLDKEGNSMSRHILKTLESENKVKLSIPSMMWEHAGRYHCYYQSPAGWSEPSDPLELVVTAYSRPTLSALPSPVVTSGVNVTLRCASRLGLGRFTLIEEGDHRLSWTLNSHQHNHGKFQALFPMGPLTFSNRGTFRCYGYENNTPYVWSEPSDPLQLLVSGVSRKPSLLTLQGPVVTPGENLTLQCGSDVGYIRYTLYKEGADGLPQRPGRQPQAGLSQANFTLSPVSRSYGGQYRCYGAHNVSSEWSAPSDPLDILIAGQISDRPSLSVQPGPTVTSGEKVTLLCQSWDPMFTFLLTKEGAAHPPLRLRSMYGAHKYQAEFPMSPVTSAHAGTYRCYGSRSSNPYLLSHPSEPLELVVSGATETLNPAQKKSDSKTAPHLQDYTVENLIRMGVAGLVLLFLGILLFEAQHSQRSPPRCSQEANSRKDNAPFRVVEPWEQI
notes: whole, on cells
B2: no binding [3]; no binding [4].

B3: recombinant human C4d, isoform C4d-A (rh-C4Ad) (ligand)
chain: TLEIPGNSDPNMIPDGDFNSYVRVTASDPLDTLGSEGALSPGGVASLLRLPRGCGEQTMIYLAPTLAASRYLDKTEQWSTLPPETKDHAVDLIQKGYMRIQQFRKADGSYAAWLSRDSSTWLTAFVLKVLSLAQEQVGGSPEKLQETSNWLLSQQQADGSFQDPCPVLDRSMQGGLVGNDETVALTAFVTIALHHGLAVFQDEGAEPLKQRVEASISKANSFLGEKASAGLLGAHAAAITAYALTLTKAPVDLLGVAHNNLMAMAQETGDNLYWGSVTGSQSNAVSPTPAPRNPSDPMPQAPALWIETTAYALLHLLLHEGKAEMADQASAWLTRQGSFQGGFRSTQDTVIALDALSAYWIASHTTEERGLNVTLSSTGR
modifications: biotin on amino groups (Biotin-X-NHS) or, when indicated, on the thioester cysteine C1010 (prepro numbering) via Iodoacetyl-LC-biotin; unlabelled in FIG. 3a and when used as competitor
notes: also called complement split product C4Ad; rh-C4d
With B3 the Kd [5] was 630 nM.

B4: recombinant human C4d, isoform C4d-B (rh-C4Bd) (ligand)
chain: TLEIPGNSDPNMIPDGDFNSYVRVTASDPLDTLGSEGALSPGGVASLLRLPRGCGEQTMIYLAPTLAASRYLDKTEQWSTLPPETKDHAVDLIQKGYMRIQQFRKADGSYAAWLSRGSSTWLTAFVLKVLSLAQEQVGGSPEKLQETSNWLLSQQQADGSFQDLSPVIHRSMQGGLVGNDETVALTAFVTIALHHGLAVFQDEGAEPLKQRVEASISKASSFLGEKASAGLLGAHAAAITAYALTLTKAPADLRGVAHNNLMAMAQETGDNLYWGSVTGSQSNAVSPTPAPRNPSDPMPQAPALWIETTAYALLHLLLHEGKAEMADQAAAWLTRQGSFQGGFRSTQDTVIALDALSAYWIASHTTEERGLNVTLSSTGR
modifications: biotin on amino groups (Biotin-X-NHS) or, when indicated, on the thioester cysteine C1010 (prepro numbering) via Iodoacetyl-LC-biotin; unlabelled when used as competitor
notes: also called complement split product C4Bd; rh-C4d
B4: binds [6].

Source: patent US20150191520A1 (MEDIZINISCHE UNIVERSIT T WIEN, published 2015)
